The test has as its target T1, aryl hydrocarbon receptor nuclear translocator (ARNT) (human, UniProt P27540 1-789, limits assumed).
T1 construct: also called hARNT
As to the kind of experiment: heterodimer formation by deletion mutant; method not named.

T1 sequence (P27540 whole entry): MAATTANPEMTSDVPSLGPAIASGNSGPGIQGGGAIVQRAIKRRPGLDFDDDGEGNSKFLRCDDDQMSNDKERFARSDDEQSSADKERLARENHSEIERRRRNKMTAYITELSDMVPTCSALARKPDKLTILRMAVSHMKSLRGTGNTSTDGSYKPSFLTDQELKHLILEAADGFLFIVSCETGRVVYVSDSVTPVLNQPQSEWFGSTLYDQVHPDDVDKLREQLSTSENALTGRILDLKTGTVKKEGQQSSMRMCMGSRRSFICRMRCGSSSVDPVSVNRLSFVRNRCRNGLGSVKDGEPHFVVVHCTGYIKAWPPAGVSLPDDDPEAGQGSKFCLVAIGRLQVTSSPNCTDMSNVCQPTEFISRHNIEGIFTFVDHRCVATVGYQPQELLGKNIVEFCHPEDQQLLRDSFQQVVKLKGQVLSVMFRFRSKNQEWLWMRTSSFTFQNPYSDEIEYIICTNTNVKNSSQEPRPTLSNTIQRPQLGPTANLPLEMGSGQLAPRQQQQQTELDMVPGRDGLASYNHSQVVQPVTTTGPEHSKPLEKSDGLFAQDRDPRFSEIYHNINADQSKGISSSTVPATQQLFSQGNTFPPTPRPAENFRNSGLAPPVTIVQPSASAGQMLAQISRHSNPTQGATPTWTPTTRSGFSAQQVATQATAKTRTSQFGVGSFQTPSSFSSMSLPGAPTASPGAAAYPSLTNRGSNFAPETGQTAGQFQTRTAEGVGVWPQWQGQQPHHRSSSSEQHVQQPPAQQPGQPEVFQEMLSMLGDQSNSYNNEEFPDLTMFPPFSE

B1: EPAS1 polypeptide lacking amino acids 486-639 of SEQ ID NO: 6 (other)
chain: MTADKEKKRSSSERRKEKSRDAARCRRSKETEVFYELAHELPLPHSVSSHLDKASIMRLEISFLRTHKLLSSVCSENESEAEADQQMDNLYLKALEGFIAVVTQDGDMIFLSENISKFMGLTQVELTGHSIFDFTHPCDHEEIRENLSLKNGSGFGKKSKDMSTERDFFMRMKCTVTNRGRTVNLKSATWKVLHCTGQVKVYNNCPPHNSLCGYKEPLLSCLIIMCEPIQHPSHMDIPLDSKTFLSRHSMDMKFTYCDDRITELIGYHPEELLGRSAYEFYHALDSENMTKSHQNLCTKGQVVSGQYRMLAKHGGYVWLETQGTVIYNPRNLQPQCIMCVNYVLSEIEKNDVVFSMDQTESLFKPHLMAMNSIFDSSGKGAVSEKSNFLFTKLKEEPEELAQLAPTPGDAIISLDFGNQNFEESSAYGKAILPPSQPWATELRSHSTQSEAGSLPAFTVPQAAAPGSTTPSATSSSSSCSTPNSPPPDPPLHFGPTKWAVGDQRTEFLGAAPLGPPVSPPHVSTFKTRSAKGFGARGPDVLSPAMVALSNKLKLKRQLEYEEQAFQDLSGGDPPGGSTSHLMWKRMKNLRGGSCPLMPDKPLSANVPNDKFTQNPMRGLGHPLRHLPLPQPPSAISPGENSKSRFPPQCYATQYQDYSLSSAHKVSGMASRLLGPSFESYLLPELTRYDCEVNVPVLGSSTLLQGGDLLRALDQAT
notes: Internal deletion as worded; The C-terminal end, 870, is derived from '1-690' plus '180 C-terminal amino acids'; also called dominant negative EPAS1 mutant
In the case of B1, the binding result is “binds”.

For the origin of these results see patent US20030032609A1 (Harvard, published 2003).
